The values that follow come from article PMC12785155, “Phytochrome B stabilizes the KNOX transcription factor BP/KNAT1 to promote light-initiated seed germination in Arabidopsis thaliana”.

In data set [1] the target is T1, BP/KNAT1 (B…US) (Arabidopsis thaliana, UniProt P46639 1-398).
T1 sequence: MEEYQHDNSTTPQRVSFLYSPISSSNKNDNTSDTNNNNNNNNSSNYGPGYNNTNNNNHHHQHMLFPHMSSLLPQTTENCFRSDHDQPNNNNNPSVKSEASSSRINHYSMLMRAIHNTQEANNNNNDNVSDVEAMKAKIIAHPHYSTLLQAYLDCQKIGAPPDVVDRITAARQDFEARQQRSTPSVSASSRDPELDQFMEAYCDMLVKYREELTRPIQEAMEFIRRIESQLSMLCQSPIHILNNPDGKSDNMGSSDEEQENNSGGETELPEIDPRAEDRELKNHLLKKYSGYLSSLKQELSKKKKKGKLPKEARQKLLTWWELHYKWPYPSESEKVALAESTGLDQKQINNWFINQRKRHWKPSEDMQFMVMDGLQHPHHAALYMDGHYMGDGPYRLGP
As to the kind of experiment: EMSA; excess unlabeled probe reduced binding; LightShift Chemiluminescent EMSA kit; 0.5 ug BP-His with biotin-labeled probe, 20 min at room temperature, 6% polyacrylamide gel; buffer, salt and pH not stated. The note with it: protein: recombinant; tags: His (pET32a, per Methods); Results text says BP-MBP; label: biotin (both strands, per oligo names); blunt. (Mobility shift assays separate free from complexed probe on a gel.)

Data set [2] deals with T1, BP/KNAT1 (B…US). As to the kind of experiment: competition; excess unlabeled mutant vs biotin-labeled NCED6 probe; did not effectively reduce binding; LightShift Chemiluminescent EMSA kit; 0.5 ug BP-His with biotin-labeled probe, 20 min at room temperature, 6% polyacrylamide gel; buffer, salt and pH not stated. The conditions noted are these: protein: recombinant; tags: His (pET32a, per Methods); Results text says BP-MBP; blunt.

Data set [3] has as its target T1, BP/KNAT1 (B…US). Briefly: competition; excess unlabeled mutant vs biotin-labeled NCED9 probe; did not effectively reduce binding; LightShift Chemiluminescent EMSA kit; 0.5 ug BP-His with biotin-labeled probe, 20 min at room temperature, 6% polyacrylamide gel; buffer, salt and pH not stated. The note with it: protein: recombinant; tags: His (pET32a, per Methods); Results text says BP-MBP; blunt.

B1: NCED6 probe (dsDNA)
DNA 1: TAGCCGGACATCATTTATTTGACGGTGACGGAATGATTCACGCCGTTA
DNA 2: TAACGGCGTGAATCATTCCGTCACCGTCAAATAAATGATGTCCGGCTA
For the molecule B1, in the data set with BP/KNAT1 (B…US) [1], the binding result is “binds”.

B2: NCED6-M mutant competitor (dsDNA)
DNA 1: TAGCCGGACATCATTTATTAAAAGGAAAAGGAATGATTCACGCCGTTA
DNA 2: TAACGGCGTGAATCATTCCTTTTCCTTTTAATAAATGATGTCCGGCTA
Regarding B2, the binding result in the data set with BP/KNAT1 (B…US) [2] is on record as “no binding”.

B3: NCED9-M mutant competitor (dsDNA)
DNA 1: CATTACACTTTTTTAAAAAAAATGGAATGCAAAAAGTTTGGGCAC
DNA 2: GTGCCCAAACTTTTTGCATTCCATTTTTTTTAAAAAAGTGTAATG
In the case of B3, the binding result with BP/KNAT1 (B…US) [3] is “no binding”.

B4: NCED9 probe (dsDNA)
DNA 1: CATTACACTTTTTTAAAATGACTGGAATGCATGACGTTTGGGCAC
DNA 2: GTGCCCAAACGTCATGCATTCCAGTCATTTTAAAAAAGTGTAATG
Turning to B4, the binding result with BP/KNAT1 (B…US) [1] is on record as “binds”.
